Changes are numbered by the printed parent chain.

Data on 13 molecules can be found in patent US20250076311A1 (Chugai, published 2025).

Assay [1] concerns the target T1, cynomolgus monkey FcγRIIIaS extracellular domain with C-terminal His-tag (cynomolgus monkey, UniProt Q8SPW2 21-206 at identity 1.00)).
T1 construct: also called cyno FcgRIIIaS; cynoFcγRIIIaS
T1 chain: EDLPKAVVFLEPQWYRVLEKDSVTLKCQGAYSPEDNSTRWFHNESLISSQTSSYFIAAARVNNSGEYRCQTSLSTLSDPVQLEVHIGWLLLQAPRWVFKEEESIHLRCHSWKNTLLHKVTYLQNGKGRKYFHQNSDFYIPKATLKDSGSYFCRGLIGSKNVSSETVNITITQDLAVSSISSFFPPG
The assay can be described thus: SPR, KD(SG1)/KD(variant). On the technique in general: Surface plasmon resonance follows binding to a sensor surface in real time, without labels.

In assay [2] the target is T2, human FcγRIIaR extracellular domain with C-terminal His-tag (human, UniProt P12318 34-217).
T2 construct: also called human FcgRIIaR; FcγRIIa (type R)
T2 chain: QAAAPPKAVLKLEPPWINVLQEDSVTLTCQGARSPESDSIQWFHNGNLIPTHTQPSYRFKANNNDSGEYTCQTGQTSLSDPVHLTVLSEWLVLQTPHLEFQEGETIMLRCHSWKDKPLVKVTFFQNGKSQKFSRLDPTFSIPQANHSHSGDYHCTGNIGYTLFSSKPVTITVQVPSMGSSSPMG
The assay can be described thus: SPR (Biacore), antibody captured, FcgR analyte. On the procedure: (§1) The kinetic analysis of interactions between these antibodies and FcγR was carried out using BIACORE® T200 or BIACORE® 4000 (GE Healthcare). HBS-EP+ (GE Healthcare) was used as the running buffer, and the measurement temperature was set to 25° C. […] After the measurement, the antibody captured on the chip was washed off by allowing reaction with 10 mM glycine-HCl, pH1.5 and 25 mM NaOH so that the chip was regenerated and used repeatedly. The sensorgrams obtained as measurement results were analyzed by the 1:1 Langmuir binding model using the BIACORE® Evaluation Software to calculate the binding rate constant ka (L/mol/s) and dissociation rate constant kd (1/s), and the dissociation constant KD (mol/L) was calculated from these values. […] Regarding such interactions, KD values were calculated using the following 1:1 binding model described in BIACORE® T100 Software Handbook BR1006-48 Edition AE.

The target in assay [3] is T3, cynomolgus monkey FcγRIIa3 extracellular domain with C-terminal His-tag (cynomolgus monkey).
T3 construct: also called cyno FcgRIIa3; cynoFcγRIIa3
T3 chain: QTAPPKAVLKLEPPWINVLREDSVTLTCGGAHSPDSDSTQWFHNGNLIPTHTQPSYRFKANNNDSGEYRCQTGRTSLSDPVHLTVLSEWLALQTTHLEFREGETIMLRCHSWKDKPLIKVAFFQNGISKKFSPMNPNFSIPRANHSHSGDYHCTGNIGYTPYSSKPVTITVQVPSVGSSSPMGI
Briefly: SPR (Biacore), KD of SG1 / KD of variant. On the procedure: as §1

Assay [4] addresses T4, human FcγRIIb extracellular domain with C-terminal His-tag (human, UniProt P31994 43-217).
T4 construct: also called human FcgRIIb; not shown: His-tag added to C-terminus
T4 sequence: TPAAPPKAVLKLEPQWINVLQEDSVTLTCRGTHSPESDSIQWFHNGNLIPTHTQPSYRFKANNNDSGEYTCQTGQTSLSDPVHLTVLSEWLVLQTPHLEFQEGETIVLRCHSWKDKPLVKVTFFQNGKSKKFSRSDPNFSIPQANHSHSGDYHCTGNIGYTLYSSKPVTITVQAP
Briefly: SPR Biacore, antibody captured, FcgR analyte.

Assay [5] deals with T5, cynomolgus monkey FcγRIIb extracellular domain with C-terminal His-tag (cynomolgus monkey).
T5 construct: also called cyno FcgRIIb; cynoFcγRIIb; not shown: His-tag added to C-terminus
T5 chain: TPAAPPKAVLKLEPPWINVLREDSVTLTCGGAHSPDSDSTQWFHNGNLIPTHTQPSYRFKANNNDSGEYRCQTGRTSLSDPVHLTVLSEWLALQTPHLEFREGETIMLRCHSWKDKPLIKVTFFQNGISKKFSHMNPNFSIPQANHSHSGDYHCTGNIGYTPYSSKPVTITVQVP
Briefly: SPR Biacore, antibody captured, FcgR analyte.

Assay [6] addresses T6, cynomolgus monkey FcγRIIa1 extracellular domain with C-terminal His-tag (cynomolgus monkey).
T6 construct: also called cyno FcgRIIa1; cynoFcγRIIa1; not shown: His-tag added to C-terminus
T6 chain: T3 chain with T95P, A121T, S128A, P133H, N135D
Briefly: SPR Biacore, antibody captured, FcgR analyte.

For assay [7], the target named is T7, cynomolgus monkey FcγRIIa3 extracellular domain with C-terminal His-tag (cynomolgus monkey).
T7 construct: also called cyno FcgRIIa3; cynoFcγRIIa3; not shown: His-tag added to C-terminus
T7 chain: T3 chain
The assay can be described thus: SPR Biacore, antibody captured, FcgR analyte.

Assay [8] addresses T8, cynomolgus monkey FcγRIIIaS extracellular domain with C-terminal His-tag (cynomolgus monkey, UniProt A3RFZ7 21-206 (rhesus entry)).
T8 construct: also called cyno FcgRIIIaS; cynoFcγRIIIaS; not shown: His-tag added to C-terminus
The assay can be described thus: SPR Biacore, antibody captured, FcgR analyte.

Assay [9] deals with T9, cynomolgus monkey FcγRIIb extracellular domain with C-terminal His-tag (cynomolgus monkey).
T9 construct: also called cyno FcgRIIb; cynoFcγRIIb
T9 chain: T5 chain
Briefly: SPR (Biacore), KD of SG1 / KD of variant. As to the method: as §1

Assay [10] concerns the target T10, human FcγRIIaH extracellular domain with C-terminal His-tag (human, UniProt P12318 34-217).
T10 construct: also called human FcgRIIaH; FcγRIIa (type H); not shown: His-tag added to C-terminus
T10 sequence: T2 chain with R134H
The assay can be described thus: SPR Biacore, antibody captured, FcgR analyte.

Assay [11] deals with T11, cynomolgus monkey FcγRIIa2 extracellular domain with C-terminal His-tag (cynomolgus monkey).
T11 construct: also called cyno FcgRIIa2; cynoFcγRIIa2
T11 chain: T3 chain with I127K, K130N, P133H, R142Q
The assay can be described thus: SPR (Biacore), KD of SG1 / KD of variant. On the procedure:
as §1

B1: M103205H795-MY536/M103202L889-SK1 (antibody, human IgG1, kappa, name in EU numbering)
heavy: QVTLKESGPVLVKPTETLTLTCTVSGIDLSHDDISWVRQAPGKGLEWVGIISYAGSTYYASWAKGRLTISKDTSKNQVVLTMTNMDPVDTATYYCARGVPAYSHGGDLWGQGTLVTVSSASTKGPSVFPLAPSSKSTSGGTAALGCLVKDYFPEPVTVSWNSGALTSGVHTFPAVLQSSGLYSLSSVVTVPSSSLGTQTYICNVNHKPSNTKVDKKVEPKSCDKTHTCPPCPGPEWLTGPVVFLFPPKPKDTLMISRTPEVTCVVVDVSDEDPEVKFNWYVDGVEVHNAKTKPREEQYNSTYRVVSVLTVLHQDWLNGKEYKCKVSNKALPKPIEKTISKAKGQPREPQVYTLPPSREEMTKNQVSLTCLVKGFYPSDIAVEWESNGQPENNYKTTPPVLDSDGSFFLYSKLTVDKSRWQQGNVFSCSVMHEALHNHYTQKSLSLSP
light: DIVMTQSPATLSLSPGERATLSCTSSQSVYHANWLSWFQQKPGQPPKLLIYWASTLAYGVPSRFSGSGSGTDFTLTISSLQPEDAATYYCAGGYGGGRYAFGQGTKVEIKRTVAAPSVFIFPPSDEQLKSGTASVVCLLNNFYPREAKVQWKVDNALQSGNSQESVTEQDSKDSTYSLSSTLTLSKADYEKHKVYACEVTHQGLSSPVTKSFNRGEC
notes: copies: 2 + 2
For the molecule B1, the “KD fold (SG1 = 1)” value in assay [1] is 0.23 fold.

B2: M103205H795-MY451/M103202L889-SK1 (antibody, human IgG1, kappa)
heavy: B1 heavy with G233A, P234N, W236L, V241S
light: B1 light
notes: Substitutions in EU numbering on SG1
Usually Kd stands for the concentration at which binding is half-saturated. On to B2, for which the Kd in assay [2] stood at 640 nM. The “KD fold (SG1 = 1)” value in [3] was determined as 2.5 fold.

B3: M103205H795-MY173/M103202L889-SK1 (antibody, human IgG1, kappa, name in EU numbering)
heavy: B1 heavy with G233A, W236L, T238N, V241S, D270E, K332A, P398H
light: B1 light
notes: EU numbering
Turning to B3, the Kd in [4] was 1000 nM; in assay [5] it was 730 nM; in assay [7], 8000 nM; in assay [8], 3100 nM. The “KD fold (SG1 = 1)” value stood at 1.5 fold in assay [6] and 0.12 fold in [8].

B4: M103205H795-MY170/M103202L889-SK1 (antibody, human IgG1, kappa, name in EU numbering)
heavy: B1 heavy with G233A, W236L, T238N, V241S, D270E, K332A, P398E
light: B1 light
notes: EU numbering
For the molecule B4, the “KD fold (SG1 = 1)” value in [4] was 2.5 fold; in assay [8], 0.17 fold. For the same molecule, the Kd in assay [6] is 23000 nM; in [7], 1200 nM; in [8] it was 7900 nM.

B5: M103205H795-MY467/M103202L889-SK1 (antibody, human IgG1, kappa)
heavy: B1 heavy with G233M, W236L, V241S
light: B1 light
notes: as for B2
Consider B5, for which the “KD fold (SG1 = 1)” value in assay [9] came to 3.5 fold.

B6: M103205H795-MY198/M103202L889-SK1 (antibody, human IgG1, kappa, name in EU numbering)
heavy: B1 heavy with G233A, W236L, T238N, P398M
light: B1 light
notes: substitutions in EU numbering, introduced into M103205H795-SG1
On to B6, for which the “KD fold (SG1 = 1)” value in [6] turned out to be 7.5 fold; in assay [10], 1.2 fold; in assay [8], 0.15 fold.

B7: M103205H795-MY465/M103202L889-SK1 (antibody)
heavy: B1 heavy with G233K, W236L, V241S
light: B1 light
notes: as for B2
Regarding B7, the entries for the “KD fold (SG1 = 1)” value in [11], in assay [9] and in [3] were 1.8 fold, 2.5 fold and 3.5 fold, respectively.

B8: M103205H795-MY202/M103202L889-SK1 (antibody, human IgG1, kappa, name in EU numbering)
heavy: B1 heavy with G233A, W236L, T238N
light: B1 light
notes: as for B6
Consider B8, for which the “KD fold (SG1 = 1)” value came to 3.7 fold in assay [6] and 0.09 fold in assay [8].

B9: M103205H795-MY538/M103202L889-SK1 (antibody, human IgG1, kappa, name in EU numbering)
heavy: B1 heavy with V241S, Q297L
light: B1 light
notes: copies: 2 + 2
For B9, the “KD fold (SG1 = 1)” value in assay [1] worked out at 0.25 fold.

B10: M103205H795-MY445/M103202L889-SK1 (antibody, human IgG1, kappa)
heavy: B1 heavy with G233A, P234G, W236L, V241S
light: B1 light
notes: as for B2
On to B10, for which, in assay [2], the affinity, expressed as Kd, was 1100 nM. Also, the “KD fold (SG1 = 1)” value in assay [11] is 0.5 fold.

B11: M103205H795-MY180/M103202L889-SK1 (antibody, human IgG1, kappa, name in EU numbering)
heavy: B1 heavy with G233A, W236L, T238N, V241S, D270E, K332A, P398S
light: B1 light
notes: EU numbering
Take B11: the Kd in assay [4] was 1900 nM; in assay [7], 1200 nM; in assay [8] it was 3100 nM. In addition, the “KD fold (SG1 = 1)” value in assay [6] was 1.7 fold; in assay [8] it was 0.17 fold.

B12: M103205H795-MY169/M103202L889-SK1 (antibody, human IgG1, kappa, name in EU numbering)
heavy: B1 heavy with G233A, W236L, T238N, V241S, D270E, K332A, P398D
light: B1 light
notes: EU numbering
With B12, the Kd in [6] came to 23000 nM; in [8], 3500 nM. In addition, in assay [8], the “KD fold (SG1 = 1)” value was 0.1 fold.

B13: M103205H795-MY442/M103202L889-SK1 (antibody, human IgG1, kappa)
heavy: B1 heavy with G233A, P234D, W236L, V241S
light: B1 light
notes: as for B2
For B13, in assay [9], the “KD fold (SG1 = 1)” value was found to be 1 fold.
